What was measured:
GSDMD pores = target: T1, GSDMD pores (Homo sapiens, UniProt P57764); assay: Free-standing planar lipid bilayer electrophysiology of reconstituted GSDMD pores; type: biochemical
T1 construct: His-SUMO (N, cleaved yes); made in house; host or cells: E. coli BL21
T1 sequence (P57764 1-275 limits assumed): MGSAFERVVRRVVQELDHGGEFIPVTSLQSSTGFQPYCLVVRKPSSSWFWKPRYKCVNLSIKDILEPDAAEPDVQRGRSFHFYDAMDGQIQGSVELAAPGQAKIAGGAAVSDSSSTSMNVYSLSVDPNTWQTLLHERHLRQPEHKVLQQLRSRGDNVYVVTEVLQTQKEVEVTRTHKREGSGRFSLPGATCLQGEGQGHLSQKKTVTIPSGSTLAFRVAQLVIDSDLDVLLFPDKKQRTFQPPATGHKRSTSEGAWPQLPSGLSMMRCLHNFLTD
Procedure: Protein Purification. Plasmid encoding the full length human GSDMD with a N-terminal His-SUMO tag was transformed into E. coli BL21 strain. The cultures were grown at 37° C. until OD600 0.8, and protein expression was induced with 0.2 mM isopropyl β-D-1-thiogalactopyranoside (IPTG) overnight at 20° C. The cells were harvested by centrifugation and the pellet was resuspended in 20 mM Tris buffer, pH 7.5, 50 mM NaCl, 5 mM imidazole, 20 mM MgCl2, 10 mM KCl, 0.5 mM TCEP, 0.1 mM protease inhibitor, and DNase I. After resuspension, cells were disrupted by high-pressure and centrifuged at 30,000 g at 4° C. for 1 hour. The supernatant was incubated for 2 hours at room temperature with pre-equilibrated Ni-NTA affinity resin (Thermo Scientific) and then passed through a column for gravity flow purification. The column was washed with 20 column volumes of resuspension buffer, and the fusion protein was eluted with three column volumes of the same buffer with 250 mM imidazole. SUMO-tag cleavage was achieved by addition of ULP1 protease to the solution and subsequent dialysis overnight at 4° C. against 20 mM Tris buffer, pH 7.5, 50 mM NaCl, 0.5 mM TCEP. GSDMD was eluted from a second round of purification through pre-equilibrated Ni-NTA affinity resin. The protein was further purified by HI-TRAP® Q ion-exchange resin and a SUPERDEX® 75 gel filtration column (GE Healthcare) pre-equilibrated with 20 mM Tris buffer, pH 7.5, 50 mM NaCl, 0.5 mM TCEP. The purified protein was concentrated to 20 mg/ml and frozen at −80° C.
Free-Standing Lipid Bilayer Formation and Electrophysiology. For the lipid bilayer, a bilayer chamber with a polystyrene cuvette was used. In addition, the folding method, which is based on Langmuir-Blodgett film formation (Kroemer et al. (2009) Cell Death Differ. 16:3-11; Weavers et al. (2016) Cell 165:1658-1671) was employed. Monolayers that were spread in the air-water interface were faced at the chamber hole (Bergsbaken & Fink (2009) Nat. Rev. Microbiol. 7:99-109; Mulvihill et al. (2018) EMBO J. 37 (14): e98321). In brief, a shallow trough made of polystyrene was filled with recording solution, and the surface was separated into two parts by one of the cuvette walls. Bilayers were formed by monolayers of 1:3 1-palmitoyl-2-oleoylphosphatidylethanolamine (POPE)/1-palmitoyl-2-oleoylphosphatidylcholine (POPC) (Avanti-lipids) in pentane; where appropriate, phosphoinositides of the indicated headgroup were introduced with di-oleoyl (18:1) fatty acid chains at 10% relative concentration. A small amount of phospholipid, dispersed in pentane solution, was dropped on one of the water surfaces and as pentane evaporated, the lipid molecules remained at the air-water interface. The movements of the lipid molecules became less vigorous, and eventually the lipid molecules packed together to form a monolayer. For the formation of the planar lipid bilayer by the folding method, a monolayer was formed at the air-water interface in each compartment. Upon raising the recording solution level by adding more solution, the monolayer ran up on the cuvette surface and passed through the hole, where the two monolayers from both sides encountered each other and formed a bilayer. The membrane formed by this method has been referred to as a “solvent-free” membrane. The advantage of this method over other methods, like the painting method, is the capacity to form an asymmetrical membrane in which the lipid composition of either leaflet is arbitrarily defined (Kayagaki et al. (2015) Nature 526: 666-671). Once formed, the membrane retains this asymmetry for a long time because the flip-flop or exchange of the lipid molecules between both leaflets of the membrane is very slow.
For incorporation of the GSDMD into the lipid bilayer, 2 μM of the purified GSDMD protein was added to the cis side chamber along with 2 μM of caspase 1. The specific membrane capacitance of the membrane formed by the folding method was 0.6-0.8 μF/cm^2. […]

living endothelial cells = assay: Whole-cell patching after injection of activated recombinant GSDMD; type: cell-based; settings: injection of activated protein, n=15
Excerpt: To further address whether the calcium dynamics primarily reflected that of GSDMD pores, whole-cell patching was directly recorded in living endothelial cells, which also undergo pyroptosis. […] Additionally, as befitting a large pore, the GSDMD pore opening/closing dynamics were not restricted to calcium observations. Calcium flares were visualized, which occurred in coincidence with the transient flux of a large fluorogenic molecule, within the same spatiotemporal context in living cells.

B1: GSDMD: purified recombinant full length human GSDMD, activated by caspase-1 (protein, UniProt P57764 1-484, looked up)
chain: MGSAFERVVRRVVQELDHGGEFIPVTSLQSSTGFQPYCLVVRKPSSSWFWKPRYKCVNLSIKDILEPDAAEPDVQRGRSFHFYDAMDGQIQGSVELAAPGQAKIAGGAAVSDSSSTSMNVYSLSVDPNTWQTLLHERHLRQPEHKVLQQLRSRGDNVYVVTEVLQTQKEVEVTRTHKREGSGRFSLPGATCLQGEGQGHLSQKKTVTIPSGSTLAFRVAQLVIDSDLDVLLFPDKKQRTFQPPATGHKRSTSEGAWPQLPSGLSMMRCLHNFLTDGVPAEGAFTEDFQGLRAEVETISKELELLDRELCQLLLEGLEGVLRDQLALRALEEALEQGQSLGPVEPLDGPAGAVLECLVLSSGMLVPELAIPVVYLLGALTMLSETQHKLLAEALESQTLLGPLELVGSLLEQSAPWQERSTMSLPPGLLGNSWGEGAPAWVLLDECGLELGEDTPHVCWEPQAQGRMCALYASLALLSGLSQEPH
modifications: full-length activated by caspase-1
For B1, the “mean current of single pores” value (GSDMD pores; POPE/POPC baseline bilayer) was 32 pA, the open probability (GSDMD pores; POPE/POPC baseline bilayer) was roughly 0.2 and the “time to micro-currents (protein-membrane interaction) after protein introduction” value (GSDMD pores; POPE/POPC baseline bilayer, GSDMD + caspase-1, n=20 bilayers) was 27.2 ± 2.7 min. For the same molecule, the “ion selectivity of pores” value (GSDMD pores; ramp protocol, dual rectification) was “not inherently ion-selective” and the “single pore currents, whole-cell patching” value (living endothelial cells) was “showed single pore currents”.
